In the supplement of paper PMC9170038:

Test system: MS2 coat protein
Assay: apparent KD of MS2 coat protein; designed switch direction (-1 OFF switch, 1 ON switch): 1; higher = weaker reporter binding
Method in brief: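 The reported apparent KD is a per-design median over clusters, from curve fits of normalised cluster fluorescence. Protein titrations used SNAP-549-labelled MS2 coat protein, doubled from 0.7 or 1.5 nM to 3 µM, in Tris-HCl pH 7.5 buffer with KCl, MgCl2, BSA, DTT, tRNA and Tween-20, with no input, 200 uM small-molecule ligand, or an oligonucleotide input. The RNA switches were transcribed on Illumina chips by stalled E. coli RNA polymerase.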

[1] = input ligand: microRNA oligo, concentration not stated
[2] = Eterna round: R95, input ligand: microRNA oligo, concentration not stated
[3] = Eterna round: R95, input ligand: FMN 200 uM
[4] = Eterna round: R95, input ligand: none

Sequence: GCGGAGAGGUAAGGAUAUCCAUGGAAAAAACAUGAGGAUCACCCAUGUAGGAAAAAAACUAGGAGGGAGAAGGUACCGGGACGC [AK SSNG2-V2-20] (Eterna round: R96, puzzle: Same State NG 2)
- apparent KD of MS2 coat protein (input ligand: FMN 200 uM): 21.7 nM
- apparent KD of MS2 coat protein [1]: 23.4 nM
- apparent KD of MS2 coat protein (input ligand: none): 29.8 nM

Sequence: GCUACCAAAGAAGCCAACAUGAGGAUCACCCAUGUAUGUUGGUAGGAUAUCGUUUGCAAAGCAAACGAGAAGGGCUAAGGUAGC [Mat - Same State NG 3 - JL Mod - D77] (Eterna round: R96, puzzle: Same State NG 3)
- apparent KD of MS2 coat protein (input ligand: FMN 200 uM): 138 nM
- apparent KD of MS2 coat protein [1]: 99.2 nM
- apparent KD of MS2 coat protein (input ligand: none): 107 nM

Sequence: GCUAGAAUAAACGCCUACAUGAGGAUCACCCAUGUAUGUAGGCAGGAUAUCGUAUGCAAAGCAUACGAGAAGGGCCUUACUAGC [Mat - Same State NG 3 - JL Mod - D33] (Eterna round: R96, puzzle: Same State NG 3)
- apparent KD of MS2 coat protein (input ligand: FMN 200 uM): 25.7 nM
- apparent KD of MS2 coat protein [1]: 27.7 nM
- apparent KD of MS2 coat protein (input ligand: none): 43.4 nM

Sequence: GCUAGGAAAUAAGCCAACAUGAGGAUCACCCAUGUAUGUUGGUAGGAUAUCGUUUGCAAAGCAAACGAGAAGGGCUAACCUAGC [Mat - Same State NG 3 - JL Mod - D70] (Eterna round: R96, puzzle: Same State NG 3)
- apparent KD of MS2 coat protein (input ligand: FMN 200 uM): 72.2 nM
- apparent KD of MS2 coat protein [1]: 70.6 nM
- apparent KD of MS2 coat protein (input ligand: none): 85.9 nM

Sequence: GCUCCAUUACGAGGAUAUGGGAAAGGAAGUGUACCAGAAGGCGUGAAAAGGUACAUGAGGAUCACCCAUGUACCCGGGAGCAAA [PowerStrip SSNG 1.11] (Eterna round: R96, puzzle: Same State NG 1)
- apparent KD of MS2 coat protein (input ligand: FMN 200 uM): 23.1 nM
- apparent KD of MS2 coat protein [1]: 19.6 nM
- apparent KD of MS2 coat protein (input ligand: none): 20.3 nM

Sequence: GCUCCGCAAUACUUUCACAUGAGGAUCACCCAUGUUCACGUUAAGGAUAUCUAUUGUGAGACAGUAGAGAAGGUAGCGAGCGAC [Eternabot solution 11] (Eterna round: R96, puzzle: Same State NG 3)
- apparent KD of MS2 coat protein (input ligand: FMN 200 uM): 25.7 nM
- apparent KD of MS2 coat protein [1]: 15.2 nM
- apparent KD of MS2 coat protein (input ligand: none): 24.2 nM

Sequence: GCUCGAAUCAAAACCAACAUGAGGAUCACCCAUGUAUGUUGGUAGGAUAUCGUUUGUAAAACAAACGAGAAGGGCCAAACGAGC [SameState NG3 #4] (Eterna round: R96, puzzle: Same State NG 3)
- apparent KD of MS2 coat protein (input ligand: FMN 200 uM): 53 nM
- apparent KD of MS2 coat protein [1]: 93.3 nM
- apparent KD of MS2 coat protein (input ligand: none): 118 nM

Sequence: GCUCGACGUACGGCCUACAUGAGGAUCACCCAUGUGACUGGGCAGGAUAUCUAAAUGCAGAAUGUAGAGAAGGGCCCGUCGAGC [SameState NG3 #50] (Eterna round: R96, puzzle: Same State NG 3)
- apparent KD of MS2 coat protein (input ligand: FMN 200 uM): 323 nM
- apparent KD of MS2 coat protein [1]: 35.9 nM
- apparent KD of MS2 coat protein (input ligand: none): 384 nM

Sequence: GCUCGACGUAUUGUCUACAUGAGGAUCACCCAUGUAGGUGCGAAGGAUAUCUACGUGUUUCAUGUAGAGAAGGUCGUGUCGAGC [SameState NG3 #93] (Eterna round: R96, puzzle: Same State NG 3)
- apparent KD of MS2 coat protein (input ligand: FMN 200 uM): 36.3 nM
- apparent KD of MS2 coat protein [1]: 35.1 nM
- apparent KD of MS2 coat protein (input ligand: none): 46.4 nM

Sequence: GCUCGACGUUCGGCCUACAUGAGGAUCACCCAUGUGACUGGGCAGGAUAUCUAAAUGCAGAAUGUAGAGAAGGGCCCGUCGAGC [SameState NG3 #51] (Eterna round: R96, puzzle: Same State NG 3)
- apparent KD of MS2 coat protein (input ligand: FMN 200 uM): 168 nM
- apparent KD of MS2 coat protein [1]: 43.4 nM
- apparent KD of MS2 coat protein (input ligand: none): 190 nM

Sequence: GCUCGAUGAGCGUUCUACAUGAGGAUCACCCAUGUUCGUGGGCAGGAUAUUUACAUGCAGAGUGUAGAGAAGGGCCCAUCGAGC [SameState NG3 #66] (Eterna round: R96, puzzle: Same State NG 3)
- apparent KD of MS2 coat protein (input ligand: FMN 200 uM): 205 nM
- apparent KD of MS2 coat protein [1]: 117 nM
- apparent KD of MS2 coat protein (input ligand: none): 838 nM

Sequence: GCUCGAUGAUAGGCCUACAUGAGGAUCACCCAUGUAACUGGGCAGGAUAUCUAAAUGCAGAAUGUAGAGAAGGGCCCGUCGAGC [SameState NG3 #53] (Eterna round: R96, puzzle: Same State NG 3)
- apparent KD of MS2 coat protein (input ligand: FMN 200 uM): 220 nM
- apparent KD of MS2 coat protein [1]: 86.8 nM
- apparent KD of MS2 coat protein (input ligand: none): 230 nM

Sequence: GCUCGGCUGAUGGCCCACAUGAGGAUCACCCAUGUGACUGGGCAGGAUAUCUAGAUUCAGGAUGUAGAGAAGGGCCUGCCGAGC [SameState NG3 #40] (Eterna round: R96, puzzle: Same State NG 3)
- apparent KD of MS2 coat protein (input ligand: FMN 200 uM): 331 nM
- apparent KD of MS2 coat protein [1]: 77.3 nM
- apparent KD of MS2 coat protein (input ligand: none): 188 nM

Sequence: GCUCUACAUGAGGAUCACCCAUGUCCAUCCGCACGAGGAUAUGCAUGGGCGAAAGCUGGUGCAGAAGGCGUGGGAC [Tr3Pin] (puzzle: Same State 1)
- apparent KD of MS2 coat protein [2]: 409 nM

Sequence: GCUGGAAACUACAUGAGGAUCACCCAUGUUCCGGAAACGGCACAGGAUAUCUGUCCGAAAAGGUCAGAGAAGGGUGAAACCAGC [Fiskers NG3ss - 84] (Eterna round: R96, puzzle: Same State NG 3)
- apparent KD of MS2 coat protein (input ligand: FMN 200 uM): 106 nM
- apparent KD of MS2 coat protein [1]: 90.3 nM
- apparent KD of MS2 coat protein (input ligand: none): 1020 nM

Sequence: GCUGGCAUGCAAGGAUAUCCUUCCGAGUAGGAAGGAGAAGGUGCUUGUGGGACAUGAGGAUCACCCAUGUAUGUUGGCCACGAC [Inrala] (Eterna round: R96, puzzle: Same State NG 1)
- apparent KD of MS2 coat protein [1]: 82.1 nM

Sequence: GCUUGCCGCACAGGAUAUGGGUGCCUGUACAUGAGGAUCACCCAUGUUAAGGGACGGAUUACGAACCAGAAGGGUGAGGCGGGC [Lereatle] (Eterna round: R96, puzzle: Same State NG 2)
- apparent KD of MS2 coat protein (input ligand: FMN 200 uM): 59.4 nM
- apparent KD of MS2 coat protein [1]: 119 nM
- apparent KD of MS2 coat protein (input ligand: none): 473 nM

Sequence: GGAAUAUGAUGUUACAUGAGGAUCACCCAUGUAGUAAUAACUAAGGAUAUCUGAAAAGGAGGAGAAGAGAAGGUAGGAUCAUAA [AK SSNG3-V2-10.1] (Eterna round: R96, puzzle: Same State NG 3)
- apparent KD of MS2 coat protein (input ligand: FMN 200 uM): 13.3 nM
- apparent KD of MS2 coat protein [1]: 22.5 nM
- apparent KD of MS2 coat protein (input ligand: none): 33.3 nM

Sequence: GGAAUAUGAUGUUACAUGAGGAUCACCCAUGUAGUGAUAACUAAGGAUAUUUGAAAGGAAGGAGAAGAGAAGGUAGGAUCAUAA [AK SSNG3-V2-12] (Eterna round: R96, puzzle: Same State NG 3)
- apparent KD of MS2 coat protein (input ligand: FMN 200 uM): 50.9 nM
- apparent KD of MS2 coat protein [1]: 34.3 nM
- apparent KD of MS2 coat protein (input ligand: none): 55.4 nM

Sequence: GGAAUAUUUACAGGAUAUCAUUUGUAAAUUCGAUGAGAAGGGUAGAUGUCUUACACGACUUGUUACAUGAGGAUCACCCAUGUU [SameState NG1 #8] (Eterna round: R96, puzzle: Same State NG 1)
- apparent KD of MS2 coat protein [1]: 34 nM

Sequence: GGACCCUUCGGAGGAUAUUCUCAGUAACAGUAAGAAGAAGGCCGUAAGUCAUACGCGCGUUACAUGAGGAUCACCCAUGUGUGG [Eternabot solution 47] (Eterna round: R96, puzzle: Same State NG 1)
- apparent KD of MS2 coat protein (input ligand: FMN 200 uM): 149 nM
- apparent KD of MS2 coat protein [1]: 150 nM
- apparent KD of MS2 coat protein (input ligand: none): 333 nM

Sequence: GGACGUCAUCUCACUGAUUAACAUGAGGAUCACCCAUGUUCACAGGAUAUGAGUCCGAUUAGGACUCAGAAGGGUGAGACGUCC [Fiskers NG3ss - 47] (Eterna round: R96, puzzle: Same State NG 3)
- apparent KD of MS2 coat protein (input ligand: FMN 200 uM): 19.3 nM
- apparent KD of MS2 coat protein [1]: 16.8 nM
- apparent KD of MS2 coat protein (input ligand: none): 19.3 nM

Sequence: GGAGAACAUGAGGAUCACCCAUGUAAGAGAGUUGUAGGAUAUGUGAGGAGCAGAGGAUGAACAGAAGGACAUGGAG [JR_SS!_Sub070] (puzzle: Same State 1)
- apparent KD of MS2 coat protein [3]: 42 nM
- apparent KD of MS2 coat protein [2]: 49.3 nM
- apparent KD of MS2 coat protein [4]: 56.4 nM

Sequence: GGAGAGAGAGCACAGGAUAUGCGAGGAGAGACAUGAGGAUCACCCAUGUAAGAGAGAGAGGAGAGGUAGAAGGGUGAGAGAGAGG [Altered State 2-21 - Jieux - Same State 2] (puzzle: Same State 2)
- apparent KD of MS2 coat protein [3]: 150 nM
- apparent KD of MS2 coat protein [2]: 62.7 nM
- apparent KD of MS2 coat protein [4]: 92.3 nM

Sequence: GGAGAGAGAGCGGAGGAUAUUCAAGGAGAGACAUGAGGAUCACCCAUGUAAGAGAGAGAGGAGAGGAAGAAGGCUGAGAGAGAGG [Altered State 2-10 - Jieux - Same State 2] (puzzle: Same State 2)
- apparent KD of MS2 coat protein [3]: 32.1 nM
- apparent KD of MS2 coat protein [2]: 26.9 nM
- apparent KD of MS2 coat protein [4]: 42.8 nM

Sequence: GGAGCCAAGGCAGGAUAUUCAUUUAAAUAAACAUGAGGAUCACCCAUGUAGGCCAGAAGGCCUUGGGAGAAGGGCCAUGGCUCG [Xeonanis - 13 mod7] (Eterna round: R96, puzzle: Same State NG 2)
- apparent KD of MS2 coat protein (input ligand: FMN 200 uM): 17.7 nM
- apparent KD of MS2 coat protein [1]: 72.8 nM
- apparent KD of MS2 coat protein (input ligand: none): 88.1 nM

Sequence: GGAGCCGGCACCGAGGAUAUUCAUAUUAAAACAUGAGGAUCACCCAUGUAGAGCAGAAGCUCUUGGGAGAAGGCGGAUCGGCUCG [Xeonanis - 27] (puzzle: Same State 2)
- apparent KD of MS2 coat protein [3]: 28.4 nM
- apparent KD of MS2 coat protein [2]: 306 nM
- apparent KD of MS2 coat protein [4]: 549 nM

Sequence: GGAGCCGGCACUGAGGAUAUUCAUAAUAAAACAUGAGGAUCACCCAUGUAGGCCAGAAGGCCUUGGGAGAAGGCAGGUCGGCUCA [Mat - Same State 2 - Mod of UCT - D66] (puzzle: Same State 2)
- apparent KD of MS2 coat protein [3]: 18.3 nM
- apparent KD of MS2 coat protein [2]: 153 nM
- apparent KD of MS2 coat protein [4]: 217 nM

Sequence: GGAGCCGGCACUGAGGAUAUUCAUAUUAAAACAUGAGGAUCACCCAUGUAGGCCAGAAGGCCUUGGGAGAAGGCGGGUCGGCCCG [Bibimoar - 3] (Eterna round: R96, puzzle: Same State 2)
- apparent KD of MS2 coat protein (input ligand: FMN 200 uM): 22.1 nM
- apparent KD of MS2 coat protein [1]: 222 nM
- apparent KD of MS2 coat protein (input ligand: none): 258 nM

Sequence: GGAGCCGGCACUGAGGAUAUUCAUAUUAAAACAUGAGGAUCACCCAUGUAGGCCAGAAGGCCUUGGGAGAAGGCGGGUCGGCCCG [Bibimoar - 3] (puzzle: Same State 2)
- apparent KD of MS2 coat protein [3]: 27.2 nM
- apparent KD of MS2 coat protein [2]: 360 nM
- apparent KD of MS2 coat protein [4]: 647 nM
